In article PMC9710872:

Target: SARS-CoV-2 spike (S) protein, unlabelled (ACROBiosystems) (SARS-CoV-2) (UniProt P0DTC2)
Experiment: SPR

Q: With “recombinant NRP1 (ACROBiosystems), SPR analyte (from UniProt O14786) (natural protein)” as the substance, how does the Kd read?
A: 89.4 nM
